Read-outs that look alike come from different tables or passages of the source.
What was measured:
[1] = biological target: T1, 72 kDa heat shock protein (HSP72), recombinant human (human, UniProt P0DMV8 1-641); experiment: SPR
[2] = biological target: T1, 72 kDa heat shock protein (HSP72), …; experiment: SPR; remark: listed apart in the source

T1 sequence (P0DMV8 whole entry): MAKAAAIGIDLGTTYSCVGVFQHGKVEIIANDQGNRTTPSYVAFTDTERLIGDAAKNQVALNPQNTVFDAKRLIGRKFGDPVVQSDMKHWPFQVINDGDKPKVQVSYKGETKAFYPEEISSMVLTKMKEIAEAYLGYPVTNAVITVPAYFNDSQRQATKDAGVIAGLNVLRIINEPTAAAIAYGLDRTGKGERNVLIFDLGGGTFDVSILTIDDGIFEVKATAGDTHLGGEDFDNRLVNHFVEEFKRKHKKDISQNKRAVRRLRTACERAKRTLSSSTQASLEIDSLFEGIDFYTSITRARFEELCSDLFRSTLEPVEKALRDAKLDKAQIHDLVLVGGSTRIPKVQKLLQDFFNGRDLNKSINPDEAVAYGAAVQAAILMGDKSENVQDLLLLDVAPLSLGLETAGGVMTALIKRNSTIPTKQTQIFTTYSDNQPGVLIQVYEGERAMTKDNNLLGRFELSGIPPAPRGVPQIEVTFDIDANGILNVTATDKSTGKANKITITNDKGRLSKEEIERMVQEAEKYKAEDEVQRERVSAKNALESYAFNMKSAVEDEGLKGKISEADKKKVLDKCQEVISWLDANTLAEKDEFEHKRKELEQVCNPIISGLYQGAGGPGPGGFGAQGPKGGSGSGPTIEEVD

DTDTPIVYNDRNLLD [Peptide N, the extreme carboxyl terminus (15 amino acids) of the Edmonston MV N protein]
Kd [1]: 4000 nM | Kd [2]: 1000 nM | kon [2]: 357 M⁻¹ s⁻¹

Source: article PMC248471 (Biological Procedures Online, 2003)
